The values below come from paper PMC9506415.

This experiment addresses human fibronectin (human) (UniProt P02751). Description: dual-polarization interferometry (DPI); 100 μg/mL FN immobilised on an amine-functionalised AnaChip, sealing agent, then samples injected; Tris-HCl pH 7.4 with 0.1 M NaCl; layer thickness and mass resolved.

Consider bovine gelatin (G9382, type B), for which the resolved layer mass after adsorption of gelatin (3.68 ng/mm^2 before) came to 3.86 ng/mm^2 and the resolved layer thickness after adsorption of gelatin (11.60 nm before) stood at 12.6 nm.
